Assay: soluble on expression in E. coli; label from the status in PepcDB or PDB records

Row | Sequence | soluble on expression in E. coli
1 | MYATFSALKKYGYAELSIQRIASELNFSKSTLYHHFSDKDDLLLSFFNFLLDELEQFCKSSSTNEPKKELLDFVDVLLDEGITQKEQSAKGEILAAYIELRSQAIHDTKYRERITRTDKRFVKQIAVIIDAGIDKGVFQPVEPEETAEFILAILNGILMQGSTRKRAPFQQLRQNLIEYIQTELFVESATRS | not soluble
2 | MDMAKDKGFFKKAKTGKNKSSATPYAEECAIQIPSEIDNEQMHRMPAGGEEDQYLRIKHMSALIKKYGNLPIITTRETRLPDYWLELFTAIDEGDTPKAHALFHLLPQEDIILRALRAVHSEDYLYQLIKYCIQAKHFGFKQLNADLVVTPKTFEILIKDCATTLFNPAKTHFSFGLPSHHAYTQMGSGFCLINKTAMLIKQAELSSVQPPRFVIIGTDVNRDNGLCDILRHSFSHLSICHIDVFDSRVYPQQDFSYINNEFNSEGVDVGKNIHVWHHNDLSYYAVDLSLTSRKSVGVHPALLFALEQFKASIREAKVKGQKIALYLPTGWDSHEDETAYCGKFVKGRMLGKTAAHQFRFNDGDLSYFYESIFTLYNENKDCIDTIYWGLEGGYDRTMYKRELTLLLQVIEKQLLPQDSNSHNMSCLEHHHHHH | not soluble
3 | MAELLLGVNIDHIATLRNARGTDYPDPVQAAFIAEQAGADGITVHLREDRRHITDRDVRILRQTLHTRMNLEMAVTEEMLAIAVETRPHFCCLVPEKRQEVTTEGGLDVAGQRDKMRDACARLAAAGIQVSLFIDADETQINAAAEVGAPFIEIHTGCYANAETDAEQAKELARIASAATLAARLGLKVNAGHGLTYHNVKAIAALPEMHELNIGHAIIGRAVMTGLKEAVAEMKRLMLEARG | not soluble
4 | MFPVNCYVLWDDTKEAVVIDPGCFYEEEKQALKKFILTNELTVKHLLNTHLHLDHIFGNPFMLKEFGLSAEANKADEFWIDEAPKQSRMFGFQLQEEPVPLGKYLHDGDIITFGHTKLEAIHVPGHSPGSLVYYCKEENCMFSGDVLFQGSIGRADLSGGNFDELIDHICSRLFVLPNETVVYPGHGAPTTIGMEKAENPFFR | not soluble
5 | MTEYLSVSALTKYIKYKFDQDPHLQSVLIKGELSNFKKHSSGHLYFNVKDKESVISAMMFKGNASKLGFEPKEGDEVLIEARVSVYERRGNYQIYVNKMQLDGIGNLYQKLELLKKKLKKEGYFNQSNKKLIPKYPKKIAVLTASTGAAIRDIHSTINNRYPLVEQIQISTLVQGTQARQDIIEKIQYADSLDVDTIIVGRGGGSIEDLWNFNEEDVVKTIFNCQTPIISAVGHETDFTLSDFVADVRAATPTQAAVIATPDQYELLQQIKQYEYTLSRYIKQYIEHQKKQLNHISSYYKFKQPSLLYDQQIQKRDELERQLNHLLNTKVEKSKHHLKLLQQSFNFKNLNQQITQEKQSIYQLHSRLSKIMSNNITNLKTVLKNKLESLNNLSPTNTMLRGYAIVNKDNEVVTSTHKLNENDQISLTMKDGSVDATVKKVRCNDE | not soluble
6 | MKFCYNVVTYCTKRKNNLQEYSIEITLQHPDDMMSLFGSNERHLKLIEENLDVIIHARTERVQVLGDSEEAVETARLTIEALLVLVNRGMTVNTSDVVTALSMAQNGSIDKFVALYEEEIIKDSYGKPIRVKTLGQKIYVDSVKNHDVVFGIGPAGTGKTFLAVTLAVTALKRGQVKRIILTRPAVEAGESLGFLPGDLKEKVDPYLRPVYDALYQILGKEQTSRLMEREIIEIAPLAYMRGRTLDDAFVILDEAQNTTIMQMKMFLTRLGFNSKMIVNGDVSQIDLPKNVKSGLIDAVEKLRNIKKIDFIHLSAKDVVRHPVVAEIINAYSDSESSHKLQSDKD | not soluble
7 | MQTKKAFLYVFNTMSDWEYGYLIAELNSGRYFKKDLAPLKVITVGANKEMITTMGGLRIKPDISLDECTLESKDLLILPGGTTWSEEIHQPILERIGQALKIGTIVAAICGATDALANMGYLDTRKHTSNNLEYTKMVCPNYKGEKFYELGPAVSDANLVTASGIAPLEFAMEVLKKIDVFTLDALHSWYNLNKTHKPEYFFQLMNSINK | not soluble
8 | MGHHHHHHSHMAGPVKDREAFQRLNFLYQAAHCVLAQDPENQALARFYCYTERTIAKRLVLRRDPSVKRTLCRGCSSLLVPGLTCTQRQRRCRGQRWTVQTCLTCQRSQRFLNDPGHLLWGDRPEAQLGSQADSKPLQPLPNTAHSISDRLPEEKMQTQGSSNQ | not soluble
9 | MITMTEVKGKTANESRVFKTSRVFPTDLNDHNTLFGGKILSEMDMVASISASRHSRKECVTASMDWVDFLHPVRSSDCVSYESFVIWTGRTSMEVFVKVVSEYLISGEKRIAATSFVTFVALSKENNPVPVPRVIPDTEEEKESHRIAVLRAEQRHIRKAESKKVATLLTF | soluble
10 | TERFRLTLAQLNPTVGDLAGNAALARRAWDEARAAGSDMLALTEMFVTGYQTQDLVLRRAFVEEAMATIERLAADCAEGPAIGIGGPCLEDGRLMNAYWVLEGGRVSARVFKHHLPNAEVFDEKRVFSSGEVHGPCRVGPLRIGIPICEDSWHPDVCETLAETGAEILLVPNGSPYHREKLDVRVNLMVTRVVETGLPLVYLNMVGGQDDQVFDGASFVLNPHGRLMAQLPAFEEALVHVDFE | not soluble
11 | MGSDKIHHHHHHMNITASFRDASLVAFDFPEILTRISKIIDALKAHDDSLRYENWMLKGDNQEDATRYHVYDAAGIATPAALAVLREEFRNSKDFTYVAMWDGNLASDNGASISCHVGDKSLPDTLTLRIEGERWKAYAAISGIVSTMVTIFSPALVEVSFDEYAVKQVFDDKPGVGWMLYLPKVITQQQVPEARALIPVPAKGKQTGTIIISVTDAPFSVDNPEHVAIANRIEIRLVDQDLLPAYVDI | not soluble
12 | MIAGPLGRASELHRYEGNQTVVFCAGGVGLPPVYPIMREHLRLGNHVTLISGFRAKEFLFWTGDDERVGKLKKEFGDQLSLIYTTNDGSYGVKGFVTGPLEEMMKANQEGKGRSIAEVIAIGPPLMMRAVSDLTKPYGVKTVASLEHHHHHH | not soluble
13 | MLSNDILRSVRYILKANNTDLARILALGNVDATPEQIAIWLRKEEEEGFQRCPDIVLSSFLNGLIYEKRGKDEAAPALTAERRINNNIVLKKLRIAFSLKTDDILAILTGQLFRVSMPEITAMMRAPDHKNFRECGDQFMRYFLRGLAAREHAAK | not soluble
14 | MSLNNVKLLIAGSAFFAMSAQAADRVSIDVKVTLEAAACTPILSNGGVVNFGSHSVNRLSTQHYTQIGTRNINMTITCESATGIAITARDTRMDSMTTGKDSGGQSGVKYTLNGGGYISQTTRLFGLGKTKDNKNIGSYAVLIDSNNISASNGSQTLAVSIAGADAVITGQKRAWQTLTAYPLAVDQSYYYTFVKPGETTPTPVTNAIIPLQVSASIANDLGGSEKIELDGKAVISVVYLEGHHHHHH | not soluble
15 | EMGTADLGPSSVPTPTNVTIESYNMNPIVYWEYQIMPQVPVFTVEVKNYGVKNSEWIDACINISHHYCNISDHVGDPSNSLWVRVKARVGQKESAYAKSEEFAVCRDGKIGPPKLDIRKEEKQIMIDIFHPSVFVNGDEQEVDYDPETTCYIRVYNVYVRMNGSEIQYKILTQKEDDCDEIQCQLAIPVSSLNSQYCVSAEGVLHVWGVTTEKSKEVCITIFNSSIKGSLWIPVVAALLLFLVLS | soluble
16 | MSTSEMLELNRTIDRLRRAVGSLRSMYGDAASVRRLSNDLERLEIDARELDSSPPNVVHREPVERIKVSDTPYDASMWLGIDDEGLGGLHYERG | not soluble
17 | EPIVTVYVAYGGLDLIAEEFEKDTGIKMEYVSLSSGEALSRLKAEQSNPSADVWLGGGIDAFISAQNDGLLEAYKSPNAEEIDPLFVEENGYWIGVSLVTIGILENTDLMTEKGLPEPETWDDLITEDYSGELIASNPTVSGTAYFTICGILQMNGEEEGWNYLDKFYQNTPFLTKRGSGPGNLVTAGEYAYGVAPDPHTTLIANSELPVKSVFLDNVIWWPSPVSIVNGAKHPENAKIFVDWCLSKEGQEVLMQASPRVPVRGDI | not soluble
18 | SMGDREQLLQRARLAEQAERYDDMASAMKAVTELNEPLSNEDRNLLSVAYKNVVGARRSSWRVISSIEQKTMADGNEKKLEKVKAYREKIEKELETVCNDVLSLLDKFLIKNCNDFQYESKVFYLKMKGDYYRYLAEVASGEKKNSVVEASEAAYKEAFEISKEQMQPTHPIRLGLALNFSVFYYEIQNAPEQACLLAKQAFDDAIAELDTLNEDSYKDSTLIMQLLRDNLTLWTSDQQDEEAGEGN | soluble
19 | MGEWEIIDIGPFTQNLGKFAVDEENKIGQYGRLTFNKVIRPCMKKTIYENEGFREIKGYEYQLYVYASDKLFRADISEDYKTRGRKLLRFNGPVPPP | soluble
20 | QREIQGVRHFVADLSEAARLGLVPGEHYFCVSSIRVDRQHDGAPLCWTDVYAQRDYTAVIELAREHPDQLIAGLIEQHYGRAIAVVDQQVRAVLLTAEMARALKAEAGSPGLKIIRHYREENGDLMAVSETVHPDDRFT | not soluble
21 | MRERLKGVIKKGVKVFFTDESGIHHDPSKVRRLGLYNVPVDYPSRKLNVLASIPLFDGVPCFMSTYSNVNFKIFAEFLRLFRNSGPIVLILDSAKFHKNAYVFSVASQLGITLLFLPPYSPDLNPIEFGGTWFVG | soluble
22 | MANRMILNETAWFGRGAVDALTDEVTRRGYHKALIVTDKTLVQCGVVDKVTSRMDAAGLAWEIYAGVIPNPTISVVQEGLKVFTQSGADYLIAIGGGSPQDTCKAIGIISNNPEFADVRSLEGLSPTRKPSVPIMAIPTTAGTAAEVTINYVITDEEKRRKFVCVDPHDIPQAAFIDADMMDGMPPALKAATGVDALTHAIEGYITRAAWALTDALHIKAIEIIAGALRGAVAGEKEAGEAMALGQYVAGMGFSNVGLGLVHGMAHPLGAFYNTPHGVANAILLPHVMRFNAGSTNEKFRDIARAMGVKVEGLSLEEARNAAVEAVFTLNRDVGIPLHLRDVGVRKEDIPALAQAAFDDVCTGGNPREASLADIVELYHTAW | not soluble
23 | MGSDKIHHHHHHACSWVDDDRSDCPTGCWLKLSYTYNMLNVDAVTTQVKDVTLFILDQEGNYIVREEVDSLTFHQNECTIQVPSLPQGDYTFLVWAGLADSLYRHTPTSLTLLRNEAGEQSEKLSSLFHGRLDNVHISGEYQVLALSLTKNTNILSCILQSQSAAPLDTDDFRLELTARNGCMDHRNTPTDSVSTCYLPFMQESANLEDIQVVHAGMNTLRLMENDDTRLRLIHQPDGKEIFDIPLTPYLLLSRNVETTYMPPQEYLDRQDRYNLIFFLSPTNDPQKPYICLQMQVNGWIIRINDAELDK | not soluble
24 | MSVTVDDKDVSLNMIRPFEILTLPIPAGVAGKSLVWRFINDYGAISQPLKKNL | not soluble
25 | MNRRDFIKAASGGALLLGAAPSVSHAAAENRPPIPGSLGMLYDSTLCVGCQACVTKCQDINFPARNPEGEQTWSNNDKLSPYTNNIIQVWRSGTGVNKDQEENGYAYIKKQCMHCVDPNCVSVCPVSALKKDPKTGIVHYDKDVCTGCRYCMVACPYNVPKYDYNNPFGALHKCELCNQKGVERLDKGGLPGCVEVCPAGAVIFGTREELMAEAKKRLALKPGSEYHYPRQTLKTDDTYLHTVPKYYPHLYGEKEGGGTQVLVLTGVPYEDLDLPKLDDLSTGARSEHVQHTLYKGMILPLAALAGLTVLVRRNSKNDHHDGGDDHES | not soluble
26 | MHPRSKLSQAQRELAVDLFEEGYGSRAVANRLGVRREQVRHLEDRFRLHGRLCLVSKRTKRQYSFDTKMEILRRHKAGELKSDLAKEYGLSSPALINHWVWQVNKGGPDALRPKPKGRPKSSARPAPVTEEDKLRRENELLKAEVAYLKKLRDLRDQRRGLEHHHHHH | not soluble

— the DeepSol protein solubility set
